Experimental data reported in the supplement of paper PMC10065799, “High-throughput profiling of sequence recognition by tyrosine kinases and SH2 domains using bacterial peptide display” (eLife, 2023).

How the values were obtained:
Grb2 SH2 = Grb2 SH2 (UniProt P62993); experiment: SH2 binding enrichment of the phosphorylated peptide, bacterial display (enrichment ratio); higher = better substrate or ligand; peptides without Tyr show the background
c-Src SH2 = experiment: as above
SHP2-C SH2 = experiment: as above
Jak2 = Jak2 (UniProt O60674); experiment: phosphorylation enrichment, bacterial display (enrichment ratio); higher = better substrate or ligand; peptides without Tyr show the background
FGFR1 = FGFR1 (UniProt P11362); experiment: as above
EPHB1 = EPHB1 (UniProt P54762); experiment: as above
Hck = Hck (UniProt P08631); experiment: as above
FGFR3 = FGFR3 (UniProt P22607); experiment: as above
AncSZ = experiment: as above
Fes = Fes (UniProt P07332); experiment: as above
Fer (mouse) = experiment: as above
EPHB2 = EPHB2 (UniProt P29323); experiment: as above
c-Src = experiment: as above
c-Abl (mouse) = experiment: as above
Fyn = Fyn (UniProt P06241); experiment: as above
MERTK = MERTK (UniProt Q12866); experiment: as above
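Wherever SH2 binding enrichment of the phosphorylated peptide, bacterial display is given: peptide library displayed on the E. coli surface as eCPX fusions, selected cells deep-sequenced, score is each peptide's frequency after selection divided by its frequency in the input.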
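Wherever phosphorylation enrichment, bacterial display is given: 11-residue human phosphosite peptides and single-mutation variants displayed on the E. coli surface, counted by deep sequencing, each peptide's frequency after selection divided by its frequency in the unselected input library; frequency after pTyr selection over input frequency; kinase dosed for 20-30% of maximal phosphorylation in three min.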

Sequence of EPHB1 (P54762 whole entry, looked up): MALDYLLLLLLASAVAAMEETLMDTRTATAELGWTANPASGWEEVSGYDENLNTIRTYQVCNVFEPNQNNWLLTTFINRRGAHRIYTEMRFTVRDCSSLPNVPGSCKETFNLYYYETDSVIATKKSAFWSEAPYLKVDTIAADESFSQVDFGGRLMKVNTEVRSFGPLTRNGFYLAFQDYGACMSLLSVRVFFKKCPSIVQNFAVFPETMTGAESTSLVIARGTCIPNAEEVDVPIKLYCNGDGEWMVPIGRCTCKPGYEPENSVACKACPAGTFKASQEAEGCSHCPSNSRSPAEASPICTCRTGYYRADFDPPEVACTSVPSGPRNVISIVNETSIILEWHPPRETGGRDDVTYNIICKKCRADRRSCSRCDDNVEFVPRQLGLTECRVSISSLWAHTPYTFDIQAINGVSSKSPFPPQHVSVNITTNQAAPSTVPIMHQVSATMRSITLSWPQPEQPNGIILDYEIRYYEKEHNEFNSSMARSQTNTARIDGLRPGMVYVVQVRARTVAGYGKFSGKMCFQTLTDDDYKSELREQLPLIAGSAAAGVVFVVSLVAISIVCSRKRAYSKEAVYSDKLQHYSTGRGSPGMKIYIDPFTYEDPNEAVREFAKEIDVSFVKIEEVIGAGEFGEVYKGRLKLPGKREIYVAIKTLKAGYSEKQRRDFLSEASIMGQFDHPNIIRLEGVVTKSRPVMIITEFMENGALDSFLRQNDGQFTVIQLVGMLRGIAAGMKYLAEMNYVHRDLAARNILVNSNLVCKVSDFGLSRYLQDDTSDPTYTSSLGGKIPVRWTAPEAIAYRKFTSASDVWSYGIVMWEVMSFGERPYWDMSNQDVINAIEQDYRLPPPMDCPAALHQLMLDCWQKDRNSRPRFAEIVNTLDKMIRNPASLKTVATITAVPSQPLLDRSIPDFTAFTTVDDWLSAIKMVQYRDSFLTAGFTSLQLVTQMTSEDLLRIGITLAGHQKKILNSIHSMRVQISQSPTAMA
Sequence of Hck (P08631 whole entry, looked up): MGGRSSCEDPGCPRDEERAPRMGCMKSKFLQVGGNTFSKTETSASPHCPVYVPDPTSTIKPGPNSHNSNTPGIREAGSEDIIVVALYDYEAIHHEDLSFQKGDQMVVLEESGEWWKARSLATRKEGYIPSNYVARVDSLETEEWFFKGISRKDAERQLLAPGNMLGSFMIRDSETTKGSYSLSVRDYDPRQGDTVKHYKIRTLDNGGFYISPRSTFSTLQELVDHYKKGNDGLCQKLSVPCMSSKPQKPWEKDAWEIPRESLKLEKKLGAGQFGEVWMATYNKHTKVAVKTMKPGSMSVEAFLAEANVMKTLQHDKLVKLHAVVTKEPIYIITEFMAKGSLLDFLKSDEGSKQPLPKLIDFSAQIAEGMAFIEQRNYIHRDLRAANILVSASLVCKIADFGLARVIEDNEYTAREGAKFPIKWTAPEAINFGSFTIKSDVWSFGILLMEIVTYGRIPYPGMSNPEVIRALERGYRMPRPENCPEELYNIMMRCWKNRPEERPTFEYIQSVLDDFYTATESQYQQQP
Sequence of Jak2 (O60674 whole entry, looked up): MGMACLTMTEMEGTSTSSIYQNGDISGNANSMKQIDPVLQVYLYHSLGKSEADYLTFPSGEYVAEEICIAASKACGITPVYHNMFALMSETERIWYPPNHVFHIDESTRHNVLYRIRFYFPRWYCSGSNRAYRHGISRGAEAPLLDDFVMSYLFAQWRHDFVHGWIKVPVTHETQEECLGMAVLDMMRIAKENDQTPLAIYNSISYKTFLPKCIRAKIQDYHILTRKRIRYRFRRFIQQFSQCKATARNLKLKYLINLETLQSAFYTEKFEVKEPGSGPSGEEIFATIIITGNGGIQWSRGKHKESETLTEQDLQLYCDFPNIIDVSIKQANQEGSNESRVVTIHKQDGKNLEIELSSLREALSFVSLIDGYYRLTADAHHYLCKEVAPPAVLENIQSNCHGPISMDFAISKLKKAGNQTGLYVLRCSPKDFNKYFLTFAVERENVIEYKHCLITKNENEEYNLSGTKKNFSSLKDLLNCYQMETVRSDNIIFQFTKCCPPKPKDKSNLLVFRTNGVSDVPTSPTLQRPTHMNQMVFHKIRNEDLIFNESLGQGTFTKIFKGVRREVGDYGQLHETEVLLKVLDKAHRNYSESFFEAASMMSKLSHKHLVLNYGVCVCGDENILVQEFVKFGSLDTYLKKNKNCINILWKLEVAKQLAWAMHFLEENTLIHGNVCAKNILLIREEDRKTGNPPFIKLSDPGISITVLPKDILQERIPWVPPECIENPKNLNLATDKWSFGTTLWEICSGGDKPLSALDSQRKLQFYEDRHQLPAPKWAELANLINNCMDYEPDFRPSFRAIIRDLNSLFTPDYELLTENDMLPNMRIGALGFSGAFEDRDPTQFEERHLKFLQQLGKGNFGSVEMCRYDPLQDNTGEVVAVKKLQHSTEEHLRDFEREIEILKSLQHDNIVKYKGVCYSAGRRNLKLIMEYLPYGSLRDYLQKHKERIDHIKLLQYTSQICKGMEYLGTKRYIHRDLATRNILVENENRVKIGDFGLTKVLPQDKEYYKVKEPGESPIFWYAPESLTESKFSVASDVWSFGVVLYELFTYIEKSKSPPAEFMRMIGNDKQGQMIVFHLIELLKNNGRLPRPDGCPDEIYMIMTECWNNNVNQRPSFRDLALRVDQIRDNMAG
Sequence of EPHB2 (P29323 whole entry, looked up): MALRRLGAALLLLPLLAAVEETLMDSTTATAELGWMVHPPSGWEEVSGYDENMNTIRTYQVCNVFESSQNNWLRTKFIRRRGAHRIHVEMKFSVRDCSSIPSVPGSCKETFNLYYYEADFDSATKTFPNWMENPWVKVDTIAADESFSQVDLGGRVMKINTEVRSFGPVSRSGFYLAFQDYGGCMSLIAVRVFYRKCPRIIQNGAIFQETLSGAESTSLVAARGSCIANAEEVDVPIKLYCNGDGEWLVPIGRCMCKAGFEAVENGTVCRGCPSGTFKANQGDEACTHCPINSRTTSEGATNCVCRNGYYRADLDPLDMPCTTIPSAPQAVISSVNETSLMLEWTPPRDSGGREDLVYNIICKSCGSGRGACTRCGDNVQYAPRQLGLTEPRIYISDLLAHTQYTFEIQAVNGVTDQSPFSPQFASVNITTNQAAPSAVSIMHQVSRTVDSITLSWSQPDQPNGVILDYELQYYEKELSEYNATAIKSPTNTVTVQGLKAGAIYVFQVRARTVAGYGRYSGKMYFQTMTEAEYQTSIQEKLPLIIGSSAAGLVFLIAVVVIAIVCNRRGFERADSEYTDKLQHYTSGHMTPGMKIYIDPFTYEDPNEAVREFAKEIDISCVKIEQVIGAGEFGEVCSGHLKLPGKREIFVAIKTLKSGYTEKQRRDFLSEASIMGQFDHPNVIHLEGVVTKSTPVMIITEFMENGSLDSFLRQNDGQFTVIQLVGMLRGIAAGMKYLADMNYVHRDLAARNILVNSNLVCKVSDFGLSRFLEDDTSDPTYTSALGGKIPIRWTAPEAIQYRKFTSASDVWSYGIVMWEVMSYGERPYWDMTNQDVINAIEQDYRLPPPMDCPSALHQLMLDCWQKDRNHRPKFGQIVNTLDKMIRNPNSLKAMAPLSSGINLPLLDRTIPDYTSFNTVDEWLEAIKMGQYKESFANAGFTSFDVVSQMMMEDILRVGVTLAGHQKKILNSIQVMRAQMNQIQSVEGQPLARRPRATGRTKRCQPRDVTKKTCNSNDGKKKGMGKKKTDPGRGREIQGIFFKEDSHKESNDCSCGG
Sequence of FGFR1 (P11362 whole entry, looked up): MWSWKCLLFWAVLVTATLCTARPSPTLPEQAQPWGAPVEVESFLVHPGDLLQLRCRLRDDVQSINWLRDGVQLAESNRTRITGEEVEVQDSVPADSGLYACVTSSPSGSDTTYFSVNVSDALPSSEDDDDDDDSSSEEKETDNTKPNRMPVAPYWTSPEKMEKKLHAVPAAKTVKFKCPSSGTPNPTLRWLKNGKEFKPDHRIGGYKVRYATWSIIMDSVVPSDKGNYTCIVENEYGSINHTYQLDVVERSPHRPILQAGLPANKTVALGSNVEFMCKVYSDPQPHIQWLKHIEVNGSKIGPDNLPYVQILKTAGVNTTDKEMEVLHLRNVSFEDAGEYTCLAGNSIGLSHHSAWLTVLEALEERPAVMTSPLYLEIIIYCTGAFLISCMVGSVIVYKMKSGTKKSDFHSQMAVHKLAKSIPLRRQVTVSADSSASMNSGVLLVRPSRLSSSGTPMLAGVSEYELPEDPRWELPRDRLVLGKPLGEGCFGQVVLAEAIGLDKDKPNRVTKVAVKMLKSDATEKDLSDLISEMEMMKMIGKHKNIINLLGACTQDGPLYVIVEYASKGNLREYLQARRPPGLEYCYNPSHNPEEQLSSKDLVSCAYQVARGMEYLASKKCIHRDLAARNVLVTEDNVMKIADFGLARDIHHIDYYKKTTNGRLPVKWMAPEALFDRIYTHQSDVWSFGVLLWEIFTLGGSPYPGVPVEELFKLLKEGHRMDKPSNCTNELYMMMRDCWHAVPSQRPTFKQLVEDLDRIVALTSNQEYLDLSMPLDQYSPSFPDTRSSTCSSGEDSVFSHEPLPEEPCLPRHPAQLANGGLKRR
Sequence of Fyn (P06241 whole entry, looked up): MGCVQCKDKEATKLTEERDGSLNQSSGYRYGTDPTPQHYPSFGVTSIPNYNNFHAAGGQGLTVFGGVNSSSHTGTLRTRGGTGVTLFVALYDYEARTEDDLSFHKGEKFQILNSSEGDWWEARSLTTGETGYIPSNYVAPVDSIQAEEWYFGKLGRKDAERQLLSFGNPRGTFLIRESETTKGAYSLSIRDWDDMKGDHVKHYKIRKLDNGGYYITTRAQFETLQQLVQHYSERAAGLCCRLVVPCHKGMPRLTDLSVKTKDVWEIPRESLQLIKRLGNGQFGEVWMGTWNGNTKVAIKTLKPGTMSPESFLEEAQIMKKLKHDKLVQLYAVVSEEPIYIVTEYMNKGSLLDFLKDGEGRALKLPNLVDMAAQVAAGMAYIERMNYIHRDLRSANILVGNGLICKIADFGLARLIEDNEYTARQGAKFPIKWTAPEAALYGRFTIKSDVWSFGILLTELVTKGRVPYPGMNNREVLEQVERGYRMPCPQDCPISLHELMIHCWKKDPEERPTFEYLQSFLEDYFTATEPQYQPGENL

Sequence | SH2 binding enrichment (Grb2 SH2) | SH2 binding enrichment (c-Src SH2) | SH2 binding enrichment (SHP2-C SH2) | phosphorylation enrichment (Jak2) | phosphorylation enrichment (FGFR1) | phosphorylation enrichment (EPHB1) | phosphorylation enrichment (Hck) | phosphorylation enrichment (FGFR3) | phosphorylation enrichment (AncSZ) | phosphorylation enrichment (Fes) | phosphorylation enrichment (Fer (mouse)) | phosphorylation enrichment (EPHB2) | phosphorylation enrichment (c-Src) | phosphorylation enrichment (c-Abl (mouse)) | phosphorylation enrichment (Fyn) | phosphorylation enrichment (MERTK)
TFACSYTPVKA [FLNB_Y708_YF] | 0.481 | 0.587 | 1.39 | 1.09 | 0.582 | 0.527 | 0.562 | 0.653 | 1.16 | 1.08 | 0.449 | 0.577 | 0.536 | 0.961 | 0.444 | 0.342
TFGVVYRAKDK [CDK11B_Y453_YF] | 0.808 | 0.426 | 0.64 | 0.703 | 0.333 | 0.428 | 0.481 | 0.506 | 0.831 | 0.798 | 0.372 | 0.592 | 0.513 | 0.584 | 0.563 | 0.396
TFSPPYFHRNC [HGD_Y333_R330S_YF] | 8.96 | 2.42 | 1.18 | 2.21 | 0.535 | 0.268 | 0.539 | 0.83 | 1.81 | 0.808 | 0.483 | 1.08 | 1.01 | 0.878 | 0.363 | 0.718
TINPIYEHVGF [CHN1_Y143_YF] | 0.83 | 0.518 | 0.69 | 1.18 | 0.739 | 19.7 | 11.6 | 0.802 | 1.02 | 9.52 | 18.2 | 23.4 | 9.42 | 12.5 | 12.6 | 11.7
TKHTFYKQPMF [GBA_Y451_D448H] | 1.04 | 0.941 | 1.13 | 0.49 | 0.539 | 0.429 | 0.475 | 0.482 | 1 | 0.769 | 0.44 | 0.558 | 0.377 | 0.522 | 0.478 | 0.441
TLCLCYKEIEE [ATP8B1_Y658] | 0.921 | 1.29 | 0.937 | 1.36 | 0.592 | 1.05 | 0.733 | 1.05 | 1.63 | 1.96 | 0.704 | 0.825 | 0.624 | 0.886 | 0.521 | 0.618
TLQSMYGCDMG [HLA-B_Y123_V127M] | 0.916 | 0.757 | 0.485 | 1.2 | 0.8 | 0.709 | 0.609 | 0.955 | 0.939 | 1.43 | 0.599 | 0.823 | 0.689 | 1.15 | 0.597 | 0.63
TLSGIYQYIIA [FOXL2_Y81] | 1.22 | 1.49 | 1.87 | 1.09 | 11.1 | 12.9 | 7.53 | 8.01 | 1.54 | 5.1 | 13.9 | 12.2 | 4.81 | 4.23 | 6.05 | 9.32
TNQVICLNPPI [DYNC1H1_Y970_Y970C] | 0.788 | 0.477 | 0.619 | 0.892 | 0.53 | 0.589 | 0.495 | 0.62 | 0.842 | 0.921 | 0.458 | 0.54 | 0.446 | 1.17 | 0.459 | 0.405
TSSSRYFDEPV [ARFGAP3_Y356_S355R] | 0.725 | 0.475 | 0.745 | 0.61 | 0.597 | 0.508 | 0.495 | 0.688 | 0.792 | 0.839 | 0.417 | 0.395 | 0.399 | 0.447 | 0.511 | 0.391
TYACSYTPVKA [FLNB_Y708] | 0.85 | 1.54 | 7.09 | 1.24 | 0.877 | 0.567 | 1.32 | 0.627 | 0.991 | 1.06 | 0.78 | 0.868 | 2.4 | 1.78 | 1.25 | 3.02
VAFVFYKSIGP [ADGRL4_Y302_YF] | 0.897 | 0.553 | 0.874 | 0.868 | 0.543 | 0.663 | 0.424 | 0.781 | 1.2 | 1.39 | 0.595 | 0.571 | 0.407 | 1.04 | 0.501 | 0.422
VATRWYPSPEL [CDKL5_Y177_R178P] | 1.23 | 0.907 | 0.794 | 0.763 | 0.437 | 0.577 | 0.504 | 0.541 | 0.891 | 0.953 | 0.289 | 0.517 | 0.473 | 0.696 | 0.439 | 0.522
VAVTKYCKEEF [ATP7B_Y1078_L1083F] | 0.862 | 0.501 | 0.598 | 0.959 | 0.563 | 0.605 | 0.458 | 0.624 | 0.887 | 1.05 | 0.487 | 0.568 | 0.462 | 0.707 | 0.459 | 0.357
VDGSVYKLPPS [GCK_Y413_H416P] | 0.744 | 0.426 | 0.525 | 0.598 | 0.523 | 0.429 | 0.61 | 0.492 | 0.728 | 0.795 | 0.514 | 0.563 | 1.46 | 0.661 | 2.81 | 0.5
VECHLYFTQPK [AKR1D1_Y199_P198L] | 0.801 | 0.374 | 0.867 | 1.58 | 0.493 | 0.717 | 0.631 | 0.946 | 1.42 | 1.33 | 0.645 | 0.663 | 0.91 | 1.02 | 0.588 | 0.556
VERIHYIGQNE [HMOX2_Y140] | 1.08 | 0.437 | 0.972 | 0.553 | 0.555 | 0.351 | 0.453 | 0.381 | 0.617 | 0.638 | 0.434 | 0.47 | 0.368 | 0.344 | 0.494 | 0.522
VGAKTYKMSMA [CPS1_Y309_A304V] | 0.725 | 0.408 | 0.421 | 0.511 | 0.367 | 0.437 | 0.307 | 0.382 | 0.645 | 0.524 | 0.268 | 0.326 | 0.498 | 0.57 | 0.399 | 0.428

Second part, led by results:

SH2 binding enrichment (Grb2 SH2) | SH2 binding enrichment (c-Src SH2) | SH2 binding enrichment (SHP2-C SH2) | Sequence | phosphorylation enrichment (Jak2) | phosphorylation enrichment (FGFR1) | phosphorylation enrichment (EPHB1) | phosphorylation enrichment (Hck) | phosphorylation enrichment (FGFR3) | phosphorylation enrichment (AncSZ) | phosphorylation enrichment (Fes) | phosphorylation enrichment (Fer (mouse)) | phosphorylation enrichment (EPHB2) | phosphorylation enrichment (c-Src) | phosphorylation enrichment (c-Abl (mouse)) | phosphorylation enrichment (Fyn) | phosphorylation enrichment (MERTK)
0.74 | 0.528 | 0.746 | TGQEDYDRLRP [RAC1_Y64_A59T] | 1.02 | 0.754 | 0.781 | 0.836 | 0.732 | 1.34 | 1.17 | 0.563 | 0.94 | 0.603 | 0.778 | 0.756 | 0.498
0.664 | 0.653 | 0.768 | TGSFTYEAVEL [MTMR14_Y462] | 1.31 | 0.466 | 6.56 | 1.78 | 0.711 | 1.77 | 1.24 | 13.1 | 3.89 | 2.45 | 0.801 | 2.21 | 1.87
0.802 | 0.885 | 0.768 | TLNFFYQQVKS [PTK2_Y148] | 1 | 0.471 | 0.68 | 0.471 | 0.849 | 1.15 | 1.15 | 0.575 | 0.658 | 0.361 | 0.606 | 0.516 | 0.366
0.772 | 0.536 | 0.89 | TNFRFYLRSLE [MTM1_Y71_L70F_YF] | 1.57 | 0.548 | 0.66 | 0.633 | 0.964 | 1.3 | 1.64 | 0.558 | 0.611 | 0.455 | 0.931 | 0.397 | 0.381
1.68 | 0.937 | 0.501 | TPGPNYCPGYN [USH2A_Y463_R464C] | 0.853 | 0.504 | 0.468 | 0.466 | 0.616 | 0.694 | 1.17 | 0.497 | 0.551 | 0.35 | 0.429 | 0.623 | 0.379
1.55 | 1.27 | 1.39 | TQRPHYKGGGG [TYROBP_Y112_Y111H] | 0.676 | 0.45 | 0.349 | 0.535 | 0.76 | 0.558 | 0.686 | 0.565 | 0.587 | 0.454 | 0.97 | 0.496 | 0.433
0.99 | 0.522 | 1.23 | TRDVNYGWIIH [MT-CYB_Y75_R80H] | 1.15 | 0.703 | 0.938 | 0.523 | 0.736 | 1.06 | 1.11 | 4.76 | 1.14 | 0.524 | 0.908 | 0.508 | 1.98
0.589 | 0.545 | 0.358 | TRNREYDDIDD [TTYH2_Y424_D423E] | 0.57 | 0.548 | 0.53 | 0.609 | 0.693 | 0.904 | 0.789 | 0.533 | 0.496 | 0.581 | 0.54 | 0.585 | 0.559
0.822 | 0.51 | 0.531 | TRRSSYEDSSL [HNF4A_Y144] | 0.465 | 0.42 | 0.379 | 0.457 | 0.57 | 1.2 | 0.707 | 0.447 | 0.529 | 0.447 | 0.402 | 0.53 | 0.5
0.922 | 0.643 | 0.771 | TSRVLYPNDNF [PYGM_Y281_I276T] | 0.638 | 0.545 | 0.456 | 0.558 | 0.436 | 0.64 | 0.7 | 0.432 | 0.424 | 0.415 | 0.51 | 0.456 | 0.408
1.02 | 0.413 | 0.595 | TTHRGYDSDNP [MMUT_Y146_A141T] | 0.699 | 0.542 | 0.685 | 0.665 | 0.823 | 0.744 | 0.859 | 0.423 | 0.532 | 0.389 | 0.642 | 0.685 | 0.53
0.569 | 3.79 | 0.482 | TVEDHYYEGGI [TKT_Y563] | 1.06 | 1.72 | 0.789 | 0.565 | 1.9 | 1.27 | 1.23 | 0.636 | 0.583 | 0.588 | 0.745 | 0.589 | 0.574
0.707 | 0.588 | 0.724 | TVLWRYTGTRP [UGT1A1_Y337] | 0.779 | 0.495 | 0.432 | 0.557 | 0.606 | 1.17 | 1.01 | 0.423 | 0.582 | 0.344 | 0.633 | 0.411 | 0.317
0.708 | 1 | 0.834 | VARAVYQAVLS [SMG1_Y549_H546R] | 0.722 | 0.468 | 0.526 | 2.26 | 0.585 | 0.999 | 0.97 | 1.33 | 0.567 | 1.36 | 0.75 | 1.07 | 0.758
0.746 | 0.487 | 0.825 | VDDQIYYFRKP [PBRM1_Y1289_E1287Q] | 2.07 | 8.8 | 1.08 | 8.88 | 7.78 | 2.93 | 1.23 | 1.75 | 0.98 | 6.28 | 12.8 | 8.3 | 5.41
